T1: Fus1, P11710
T1 sequence (P11710 432-512, looked up): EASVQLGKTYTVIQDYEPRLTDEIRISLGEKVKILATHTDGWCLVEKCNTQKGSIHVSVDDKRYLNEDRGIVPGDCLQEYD

T2: Lsb3, P43603
T2 sequence (P43603 385-451, looked up): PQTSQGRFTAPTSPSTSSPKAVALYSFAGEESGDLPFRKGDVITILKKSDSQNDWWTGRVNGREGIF

T3: Myo5, Q04439
T3 sequence (Q04439 1072-1160, looked up): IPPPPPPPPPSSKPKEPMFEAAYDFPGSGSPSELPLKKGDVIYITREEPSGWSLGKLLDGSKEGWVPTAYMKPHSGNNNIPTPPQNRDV

T4: Bzz1-2, P38822
T4 sequence (P38822 568-633, looked up): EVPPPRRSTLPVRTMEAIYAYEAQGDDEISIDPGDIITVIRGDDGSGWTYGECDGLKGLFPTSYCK

T5: Hof1, Q05080
T5 sequence (Q05080 590-669, looked up): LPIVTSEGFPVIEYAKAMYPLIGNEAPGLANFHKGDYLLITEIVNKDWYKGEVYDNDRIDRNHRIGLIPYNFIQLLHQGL

T6: Lsb4, P32793
T6 sequence (P32793 402-468, looked up): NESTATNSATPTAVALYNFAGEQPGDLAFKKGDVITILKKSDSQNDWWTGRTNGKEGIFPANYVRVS

T7: Nbp2, Q12163
T7 sequence (Q12163 103-180, looked up): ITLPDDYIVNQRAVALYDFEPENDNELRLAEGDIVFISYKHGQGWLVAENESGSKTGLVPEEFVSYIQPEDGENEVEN

T8: Boi2, P39969
T8 sequence (P39969 32-116, looked up): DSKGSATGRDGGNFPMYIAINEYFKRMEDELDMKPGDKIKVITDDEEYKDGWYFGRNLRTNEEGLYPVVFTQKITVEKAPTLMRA

T9: Pex13, P80667
T9 sequence (P80667 295-386, looked up): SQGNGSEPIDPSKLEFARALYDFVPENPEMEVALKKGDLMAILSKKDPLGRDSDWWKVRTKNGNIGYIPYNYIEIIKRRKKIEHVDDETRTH

T10: Boi1, P38041
T10 sequence (P38041 1-86, looked up): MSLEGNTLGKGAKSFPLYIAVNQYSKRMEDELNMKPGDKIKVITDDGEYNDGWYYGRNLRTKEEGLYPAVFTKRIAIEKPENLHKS

T11: Sla1-3, P32790
T11 sequence (P32790 344-424, looked up): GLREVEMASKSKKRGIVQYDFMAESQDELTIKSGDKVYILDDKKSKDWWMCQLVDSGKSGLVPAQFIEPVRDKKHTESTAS

T12: Bbc1, P47068
T12 sequence (P47068 1-78, looked up): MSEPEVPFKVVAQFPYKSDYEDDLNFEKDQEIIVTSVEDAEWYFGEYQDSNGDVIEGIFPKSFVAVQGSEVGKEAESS

T13: Pin3, Q06449
T13 sequence (Q06449 53-122, looked up): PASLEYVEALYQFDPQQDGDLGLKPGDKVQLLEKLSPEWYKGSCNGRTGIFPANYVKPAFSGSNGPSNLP

T14: Cdc25, P04821
T14 sequence (P04821 50-136, looked up): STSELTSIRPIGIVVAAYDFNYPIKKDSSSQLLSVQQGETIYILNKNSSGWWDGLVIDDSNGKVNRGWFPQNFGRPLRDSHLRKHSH

T15: Lsb1, P53281
T15 sequence (P53281 45-122, looked up): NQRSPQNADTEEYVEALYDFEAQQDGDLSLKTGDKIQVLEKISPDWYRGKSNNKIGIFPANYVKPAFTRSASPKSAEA

T16: Bzz1-1, P38822
T16 sequence (P38822 478-572, looked up): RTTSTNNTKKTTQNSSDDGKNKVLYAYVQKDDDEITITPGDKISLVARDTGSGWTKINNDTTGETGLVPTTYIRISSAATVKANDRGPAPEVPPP

T17: Abp1, P15891
T17 sequence (P15891 535-592, looked up): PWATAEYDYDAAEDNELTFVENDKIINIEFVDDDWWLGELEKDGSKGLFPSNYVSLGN

T18: Hse1, P38753
T18 sequence (P38753 208-285, looked up): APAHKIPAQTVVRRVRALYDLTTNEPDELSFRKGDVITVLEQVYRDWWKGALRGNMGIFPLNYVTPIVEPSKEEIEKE

T19: Cyk3, Q07533
T19 sequence (Q07533 1-83, looked up): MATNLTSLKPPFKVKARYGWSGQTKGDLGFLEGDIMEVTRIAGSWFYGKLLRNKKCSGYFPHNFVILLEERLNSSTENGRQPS

T20: Bud14, P27637
T20 sequence (P27637 247-328, looked up): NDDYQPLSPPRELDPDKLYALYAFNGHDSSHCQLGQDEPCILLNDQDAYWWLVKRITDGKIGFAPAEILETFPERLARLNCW

T21: Sla1-2, P32790
T21 sequence (P32790 60-140, looked up): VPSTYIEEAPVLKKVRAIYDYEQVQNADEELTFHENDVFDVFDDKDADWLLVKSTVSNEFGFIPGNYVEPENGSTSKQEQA

B1: unnamed (peptide)
chain: RTIRKLPLMSLSEYF
B2: unnamed (peptide)
chain: HVRRSILALPLGVLL
B3: unnamed (peptide)
chain: NFKRLLPRDPSEKSS
B4: unnamed (peptide)
chain: LRWRHKFFLPAIAAI
B5: unnamed (peptide)
chain: IKTRSVPKIPSIESV
B6: unnamed (peptide)
chain: NRARYLPQNPDIIAG

These binders were tested against GST (assay: SPOT array). Conditions: median of control spots 978.

| SPOT intensity | Binder |
| --- | --- |
| 0 | B1 |
| 0 | B2 |
| 0 | B3 |
| 0 | B4 |
| 0 | B5 |
| 0 | B6 |

Each binder was assayed against Bem1-1, P29366 (assay: SPOT array). Conditions: median of control spots 4282.
Bem1-1, P29366, sequence (P29366 55-141): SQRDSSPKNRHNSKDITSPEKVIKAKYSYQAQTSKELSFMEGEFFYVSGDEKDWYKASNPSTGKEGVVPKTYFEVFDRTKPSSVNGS

| SPOT intensity | Binder |
| --- | --- |
| 0 | B1 |
| 0 | B2 |
| 0 | B3 |
| 0 | B4 |
| 3 | B5 |
| 0 | B6 |

Each binder was assayed against T1, Fus1, P11710 (assay: SPOT array). Conditions: median of control spots 1200.

| SPOT intensity | Binder |
| --- | --- |
| 24 | B1 |
| 16 | B2 |
| 145 | B3 |
| 53 | B4 |
| 0 | B5 |
| 0 | B6 |

What follows are binders tested against Bem1-2, P29366 (assay: SPOT array). Conditions: median of control spots 4347.
Bem1-2, P29366, sequence (P29366 139-227): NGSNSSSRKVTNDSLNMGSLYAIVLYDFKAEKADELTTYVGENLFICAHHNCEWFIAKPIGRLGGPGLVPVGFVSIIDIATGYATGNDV

| SPOT intensity | Binder |
| --- | --- |
| 0 | B1 |
| 0 | B2 |
| 11 | B3 |
| 1 | B4 |
| 0 | B5 |
| 0 | B6 |

The binders below were run against T2, Lsb3, P43603 (assay: SPOT array). Conditions: median of control spots 406.

| SPOT intensity | Binder |
| --- | --- |
| 3 | B1 |
| 0 | B2 |
| 0 | B3 |
| 0 | B4 |
| 257 | B5 |
| 1 | B6 |

What follows are binders tested against T3, Myo5, Q04439 (assay: SPOT array). Conditions: median of control spots 471.

| SPOT intensity | Binder |
| --- | --- |
| 1 | B1 |
| 1 | B2 |
| 0 | B3 |
| 0 | B4 |
| 0 | B5 |
| 0 | B6 |

Each binder was assayed against T4, Bzz1-2, P38822 (assay: SPOT array). Conditions: median of control spots 4538.

| SPOT intensity | Binder |
| --- | --- |
| 0 | B1 |
| 0 | B2 |
| 10 | B3 |
| 0 | B4 |
| 2 | B5 |
| 0 | B6 |

The binders below were run against T5, Hof1, Q05080 (assay: SPOT array). Conditions: median of control spots 4086.

| SPOT intensity | Binder |
| --- | --- |
| 20 | B1 |
| 0 | B2 |
| 15 | B3 |
| 0 | B4 |
| 38 | B5 |
| 4 | B6 |

What follows are binders tested against T6, Lsb4, P32793 (assay: SPOT array). Conditions: median of control spots 397.

| SPOT intensity | Binder |
| --- | --- |
| 2 | B1 |
| 4 | B2 |
| 0 | B3 |
| 0 | B4 |
| 166 | B5 |
| 0 | B6 |

What follows are binders tested against T7, Nbp2, Q12163 (assay: SPOT array). Conditions: median of control spots 357.

| SPOT intensity | Binder |
| --- | --- |
| 1 | B1 |
| 0 | B2 |
| 12 | B3 |
| 0 | B4 |
| 12 | B5 |
| 1 | B6 |

These binders were tested against T8, Boi2, P39969 (assay: SPOT array). Conditions: median of control spots 1161.

| SPOT intensity | Binder |
| --- | --- |
| 0 | B1 |
| 1 | B2 |
| 2 | B3 |
| 0 | B4 |
| 1 | B5 |
| 0 | B6 |

What follows are binders tested against T9, Pex13, P80667 (assay: SPOT array). Conditions: median of control spots 1341.

| SPOT intensity | Binder |
| --- | --- |
| 12 | B1 |
| 3 | B2 |
| 7 | B3 |
| 3 | B4 |
| 32 | B5 |
| 0 | B6 |

The binders below were run against T10, Boi1, P38041 (assay: SPOT array). Conditions: median of control spots 1162.

| SPOT intensity | Binder |
| --- | --- |
| 1 | B1 |
| 3 | B2 |
| 4 | B3 |
| 1 | B4 |
| 1 | B5 |
| 3 | B6 |

Each binder was assayed against T11, Sla1-3, P32790 (assay: SPOT array). Conditions: median of control spots 5475.

| SPOT intensity | Binder |
| --- | --- |
| 19 | B1 |
| 0 | B2 |
| 156 | B3 |
| 24 | B4 |
| 6 | B5 |
| 11 | B6 |

Each binder was assayed against Rvs167, P39743 (assay: SPOT array). Conditions: median of control spots 2707.
Rvs167, P39743, sequence (P39743 419-482): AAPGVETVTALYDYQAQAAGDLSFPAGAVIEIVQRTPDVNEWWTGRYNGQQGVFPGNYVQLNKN

| SPOT intensity | Binder |
| --- | --- |
| 0 | B1 |
| 2 | B2 |
| 0 | B3 |
| 0 | B4 |
| 1340 | B5 |
| 0 | B6 |

Each binder was assayed against T12, Bbc1, P47068 (assay: SPOT array). Conditions: median of control spots 796.

| SPOT intensity | Binder |
| --- | --- |
| 3 | B1 |
| 1 | B2 |
| 51 | B3 |
| 18 | B4 |
| 10 | B5 |
| 2 | B6 |

The binders below were run against T13, Pin3, Q06449 (assay: SPOT array). Conditions: median of control spots 2171.

| SPOT intensity | Binder |
| --- | --- |
| 27 | B1 |
| 2 | B2 |
| 7 | B3 |
| 4 | B4 |
| 15 | B5 |
| 2 | B6 |

The binders below were run against T14, Cdc25, P04821 (assay: SPOT array). Conditions: median of control spots 969.

| SPOT intensity | Binder |
| --- | --- |
| 6 | B1 |
| 20 | B2 |
| 50 | B3 |
| 26 | B4 |
| 2 | B5 |
| 9 | B6 |

The binders below were run against T15, Lsb1, P53281 (assay: SPOT array). Conditions: median of control spots 388.

| SPOT intensity | Binder |
| --- | --- |
| 15 | B1 |
| 47 | B2 |
| 0 | B3 |
| 0 | B4 |
| 266 | B5 |
| 1 | B6 |

What follows are binders tested against T16, Bzz1-1, P38822 (assay: SPOT array). Conditions: median of control spots 4446.

| SPOT intensity | Binder |
| --- | --- |
| 2 | B1 |
| 0 | B2 |
| 1 | B3 |
| 1 | B4 |
| 2 | B5 |
| 0 | B6 |

Each binder was assayed against T17, Abp1, P15891 (assay: SPOT array). Conditions: median of control spots 935.

| SPOT intensity | Binder |
| --- | --- |
| 13 | B1 |
| 23 | B2 |
| 41 | B3 |
| 0 | B4 |
| 9 | B5 |
| 5 | B6 |

What follows are binders tested against T18, Hse1, P38753 (assay: SPOT array). Conditions: median of control spots 1727.

| SPOT intensity | Binder |
| --- | --- |
| 2 | B1 |
| 0 | B2 |
| 72 | B3 |
| 21 | B4 |
| 0 | B5 |
| 3 | B6 |

These binders were tested against Myo3, P36006 (assay: SPOT array). Conditions: median of control spots 468.

| SPOT intensity | Binder |
| --- | --- |
| 3 | B1 |
| 3 | B2 |
| 6 | B3 |
| 0 | B4 |
| 5 | B5 |
| 0 | B6 |

These binders were tested against Sho1, P40073 (assay: SPOT array). Conditions: median of control spots 1148.
Sho1, P40073, sequence (P40073 287-367): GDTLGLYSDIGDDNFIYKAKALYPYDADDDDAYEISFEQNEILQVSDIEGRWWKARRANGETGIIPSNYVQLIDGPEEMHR

| SPOT intensity | Binder |
| --- | --- |
| 6 | B1 |
| 35 | B2 |
| 51 | B3 |
| 9 | B4 |
| 4 | B5 |
| 10 | B6 |

The binders below were run against T19, Cyk3, Q07533 (assay: SPOT array). Conditions: median of control spots 1451.

| SPOT intensity | Binder |
| --- | --- |
| 1 | B1 |
| 2 | B2 |
| 3 | B3 |
| 4 | B4 |
| 0 | B5 |
| 0 | B6 |

These binders were tested against T20, Bud14, P27637 (assay: SPOT array). Conditions: median of control spots 956.

| SPOT intensity | Binder |
| --- | --- |
| 6 | B1 |
| 14 | B2 |
| 12 | B3 |
| 10 | B4 |
| 2 | B5 |
| 11 | B6 |

These binders were tested against T21, Sla1-2, P32790 (assay: SPOT array). Conditions: median of control spots 712.

| SPOT intensity | Binder |
| --- | --- |
| 1 | B1 |
| 0 | B2 |
| 0 | B3 |
| 0 | B4 |
| 1 | B5 |
| 0 | B6 |

From publication PMC2756588
